Results reported in patent US20210317209A1 (University of Texas, published 2021).

How the values were obtained:
[1] = target: T1, recombinant human CD79b protein (human, UniProt P40259 29-159, limits assumed); test: column EC50(ng/ml) of the drawn table; the table names no assay, the filing's only titration is the ELISA on recombinant human CD79b protein of FIG. 2B
T1 sequence (looked up): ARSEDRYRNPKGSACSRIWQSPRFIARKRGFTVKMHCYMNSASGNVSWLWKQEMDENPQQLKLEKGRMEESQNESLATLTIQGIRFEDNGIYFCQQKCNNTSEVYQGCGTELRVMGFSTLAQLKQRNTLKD

[2] = target: T1, recombinant human CD79b protein; test: ELISA on recombinant human CD79b protein
[3] = target: T1, recombinant human CD79b protein; test: Octet assay

B1: anti-human CD79b monoclonal antibody clone 14 (IgG1) (antibody, V domains shown)
VH: EVQLQESGPELKKPGETVKISCKASGYTFTDYSMHWVKQAPGKGLKWMGWINTETGEPTYADDFKGRFAFSLETSASTAYLQINNLKNDDTATYFCNMDSWGQGTSVTVSS
VL: QIVLTQSPAIMSASPGEKVTMTCSASSSVSYMWWYHQKPGSSPRLLIFDTSNLASGVPVRFSGSGSGTSYSLTISRMEAEDAATYYCQQWTSYPYTFGGGTKLEIK
notes: Murine hybridoma antibody, IgG1; It was conjugated with a fluorochrome for cell staining
- EC50 [1]: 0.0162 µg/mL
- EC50 (read off the curve) [2]: ~0.02 µg/mL
- Kd [3]: 1.44 nM
